Reference: FireProtDB (doi:10.1021/bi00102a015)

B1: Cytochrome c2, P00094 (parent)
chain: MKISLTAATVAALVLAAPAFAGDAAKGEKEFNKCKTCHSIIAPDGTEIVKGAKTGPNLYGVVGRTAGTYPEFKYKDSIVALGASGFAWTEEDIATYVKDPGAFLKEKLDDKKAKTGMAFKLAKGGEDVAAYLASVVK

Variants of: B1
Details: Rhodobacter capsulatus (strain ATCC BAA-309 / NBRC 16581 / SB1003); pH 7.5; 25 °C; GdnHCl; CD; Tris-HCl 20 mM; NaCl 40 mM; structure 1C2R; whole UniProt chain shown

Variant	ddG of mutation (higher = less stable) [kcal/mol]	denaturant m value [kcal/mol/M]	denaturant midpoint (higher = more stable) [M]	unfolding free energy [kcal/mol]
MKISLTAATVAALVLAAPAFAGDAAKGEKEFNKCKTCHSIIAPDGTEIVKGAETGPNLYGVVGRTAGTYPEFKYKDSIVALGASGFAWTEEDIATYVKDPGAFLKEKLDDKKAKTGMAFKLAKGGEDVAAYLASVVK [K53E]	-0.4	3	1.6	4.8
MKISLTAATVAALVLAAPAFAGDAAKGEKEFNDCKTCHSIIAPDGTEIVKGAKTGPNLYGVVGRTAGTYPEFKYKDSIVALGASGFAWTEEDIATYVKDPGAFLKEKLDDKKAKTGMAFKLAKGGEDVAAYLASVVK [K33D]	1.1	2.8	1.2	3.3
MKISLTAATVAALVLAAPAFAGDAAKGEKEFNKCETCHSIIAPDGTEIVKGAETGPNLYGVVGRTAGTYPEFKYKDSIVALGASGFAWTEEDIATYVKDPGAFLKEKLDDKKAKTGMAFKLAKGGEDVAAYLASVVK [K35E K53E]	0.8	3	1.2	3.6
MKISLTAATVAALVLAAPAFAGDAAKGEKEFNKCETCHSIIAPDGTEIVKGAKTGPNLYGVVGRTAGTYPEFKYKDSIVALGASGFAWTEEDIATYVKDPGAFLKEKLDDKKAKTGMAFKLAKGGEDVAAYLASVVK [K35E]	0.9	2.8	1.2	3.5
